T1: amphyphisin SH3 (AMPH_HUMAN), P49418
T1 chain: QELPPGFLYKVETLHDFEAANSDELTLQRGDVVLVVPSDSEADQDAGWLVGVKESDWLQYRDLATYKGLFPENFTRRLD


Target: T1, amphyphisin SH3 (AMPH_HUMAN), P49418
Experiment: SPOT array

| Binder | normalised SPOT signal, Boehringer light units (BLU); mean over the file's lines of this peptide |
| --- | --- |
| LATQPKRPMSIPII [P16144 1316-1329] | 23.2 |
| LDMALRRPPRLRLS [Q8WWL8 44-57] | 4180 |
| LAYFPPRPPLPPSV [Q96SL1 246-260] | 48.7 |
| LARIPNKPPPEYPG [Q15678 740-754] | 30.4 |
| LSQDLIRPIRKTGT [Q9HBF6 199-212] | 1840 |
| LDPALLRPGRFDKL [Q13608 854-867] | 944 |
| LSYSLYRPRKYLYV [Q9Y6D4 264-277] | 137 |
| LSGLIKRPGDLPEV [Q9UFP1 189-202] | 21.9 |
| LDPALLRPGRLDRK [P43686 317-330] | 2030 |
| LDPALIRPGRIDRK [Q03527 337-350] | 4590 |
| LDPALLRPGRFDRQ [Q9Y4W6 459-472] | 806 |
| LAITLRRPGSELEA [Q96KY5 32-45] | 16 |
| LDGALMRPGRLDRH [Q9UQ90 461-474] | 1540 |
| AAPLLRRPHGGAGP [O75086 179-192] | 25.6 |
| LDPALMRPGRLDRK [P35998 327-340] | 4700 |
| LDPALRRPSQKVYR [O15047 30-43] | 37.6 |

| Binder | normalised SPOT signal, Boehringer light units (BLU); mean over the file's lines of this peptide |
| --- | --- |
| APEALPRPRREGEL [Q9HA29 107-120] | 708 |
| LSHPLARPRRDAEP [P27539 244-257] | 984 |
| LAQPLRRPSSVGEL [O43379 748-761] | 37.1 |
| LALFLKRPKRSLFF [P41440 199-212] | 2280 |
| LANELRRPPLSYHN [P07996 308-321] | 34.3 |
| LASRPTRPPEPRHI [O94836 267-281] | 1090 |
| LAHVLRRPIVVVAD [Q9NQ53 317-330] | 37.4 |
| LASTPKRPSTSQTV [P12270 638-651] | 32 |
| LSKTLRRPRSLLET [Q9C000 828-841] | 32.3 |
| LSNILRRPIIVISD [P21580 199-212] | 26 |
| APELLKRPKEYTVR [O14897 560-573] | 28 |
| LDASPRRPPGPTTS [Q01970 912-926] | 210 |
| LDPALMRPGRFHRQ [O43931 13-26] | 2880 |
| LDPALRRPGRFDRE [Q9HA41 350-363] | 666 |
| LDNALIRPGRFDMQ [Q9Y2Q2 234-247] | 240 |

target: endophilin SH3 (SH3G2_HUMAN), Q99962; experiment: SPOT array

| Binder | normalised SPOT signal, Boehringer light units (BLU); mean over the file's lines of this peptide |
| --- | --- |
| LATQPKRPMSIPII [P16144 1316-1329] | 660 |
| LDMALRRPPRLRLS [Q8WWL8 44-57] | 1210 |
| LAYFPPRPPLPPSV [Q96SL1 246-260] | 2170 |
| LARIPNKPPPEYPG [Q15678 740-754] | 20.4 |
| LSQDLIRPIRKTGT [Q9HBF6 199-212] | 276 |
| LDPALLRPGRFDKL [Q13608 854-867] | 0 |
| LSYSLYRPRKYLYV [Q9Y6D4 264-277] | 288 |
| LSGLIKRPGDLPEV [Q9UFP1 189-202] | 49.5 |
| LDPALLRPGRLDRK [P43686 317-330] | 123 |
| LDPALIRPGRIDRK [Q03527 337-350] | 75.3 |
| LDPALLRPGRFDRQ [Q9Y4W6 459-472] | 139 |
| LAITLRRPGSELEA [Q96KY5 32-45] | 27.9 |
| LDGALMRPGRLDRH [Q9UQ90 461-474] | 1590 |
| AAPLLRRPHGGAGP [O75086 179-192] | 102 |
| LDPALMRPGRLDRK [P35998 327-340] | 346 |
| LDPALRRPSQKVYR [O15047 30-43] | 108 |

| Binder | normalised SPOT signal, Boehringer light units (BLU); mean over the file's lines of this peptide |
| --- | --- |
| APEALPRPRREGEL [Q9HA29 107-120] | 318 |
| LSHPLARPRRDAEP [P27539 244-257] | 405 |
| LAQPLRRPSSVGEL [O43379 748-761] | 45.3 |
| LALFLKRPKRSLFF [P41440 199-212] | 838 |
| LANELRRPPLSYHN [P07996 308-321] | 173 |
| LASRPTRPPEPRHI [O94836 267-281] | 22900 |
| LAHVLRRPIVVVAD [Q9NQ53 317-330] | 37.7 |
| LASTPKRPSTSQTV [P12270 638-651] | 78 |
| LSKTLRRPRSLLET [Q9C000 828-841] | 51.9 |
| LSNILRRPIIVISD [P21580 199-212] | 84.4 |
| APELLKRPKEYTVR [O14897 560-573] | 29.7 |
| LDASPRRPPGPTTS [Q01970 912-926] | 1090 |
| LDPALMRPGRFHRQ [O43931 13-26] | 311 |
| LDPALRRPGRFDRE [Q9HA41 350-363] | 159 |
| LDNALIRPGRFDMQ [Q9Y2Q2 234-247] | 80.5 |

— paper PMC314469, “Protein Interaction Networks by Proteome Peptide Scanning” (PLoS Biology, 2004)
